According to PMC9297724, “SARS-CoV-2 Epitopes following Infection and Vaccination Overlap Known Neutralizing Antibody Sites” (Research, 2022):
Where no end group is shown, it is not given here.

Target: T1, ACE2-Fc (human, UniProt Q9BYF1)
T1 construct: also called recombinant human ACE2; angiotensin converting enzyme-2; source: bought: GenScript
Assay: ELISA; ACE2-Fc (4 ug/mL) captured on goat anti-human IgG Fc coated plates; biotin-labeled S481 peptide in two-fold dilutions 2000-3.90 ng/mL in 1% BSA/0.05% PBST, 1 hour at room temperature; detected with HRP-streptavidin and TMB, absorbance at 450 nm
Details: both partners purified

T1 sequence (Q9BYF1 18-740): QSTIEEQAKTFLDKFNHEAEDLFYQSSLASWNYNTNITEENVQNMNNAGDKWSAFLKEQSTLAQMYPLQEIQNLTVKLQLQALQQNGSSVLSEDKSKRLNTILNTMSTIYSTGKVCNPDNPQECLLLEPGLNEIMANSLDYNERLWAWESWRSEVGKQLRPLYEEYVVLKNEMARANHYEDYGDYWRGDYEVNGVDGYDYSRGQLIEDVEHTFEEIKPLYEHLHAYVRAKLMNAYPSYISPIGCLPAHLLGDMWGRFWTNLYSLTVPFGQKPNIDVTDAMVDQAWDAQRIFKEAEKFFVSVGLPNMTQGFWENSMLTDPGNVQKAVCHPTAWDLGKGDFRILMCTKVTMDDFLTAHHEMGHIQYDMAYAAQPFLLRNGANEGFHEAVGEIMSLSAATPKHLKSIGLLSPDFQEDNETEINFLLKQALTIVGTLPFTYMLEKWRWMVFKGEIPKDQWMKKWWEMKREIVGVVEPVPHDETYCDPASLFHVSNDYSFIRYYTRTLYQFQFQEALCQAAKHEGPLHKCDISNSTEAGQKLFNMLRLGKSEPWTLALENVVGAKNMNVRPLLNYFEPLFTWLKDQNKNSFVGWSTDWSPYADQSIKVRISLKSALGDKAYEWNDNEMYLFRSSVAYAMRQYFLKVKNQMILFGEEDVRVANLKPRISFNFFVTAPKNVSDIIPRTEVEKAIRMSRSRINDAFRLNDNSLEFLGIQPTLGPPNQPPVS

B1: S481-495 peptide (peptide)
peptide: NGVEGFNCYFPLQSY
modifications: also: biotin label, position not given here
notes: also called S481 peptide
  binding result: binds
